Test results reported in paper PMC9922994, “Comprehensive screening strategy coupled with structure-guided engineering of L-threonine aldolase from Pseudomonas putida for enhanced catalytic efficiency towards L-threo-4-methylsulfonylphenylserine” (Frontiers in Bioengineering and Biotechnology, 2023).

B1: L-PpTA (Pseudomonas putida KT2440) (protein)
chain: MTDKSQQFASDNYSGICPEAWVAMEKANRGHDRAYGDDQWTERASEYFRNLFETDCEVFFAFNGTAANSLALASLCQSYHSVICSETAHVETDECGAPEFFSNGSKLLTAASVNGKLTPQSIREVALKRQDIHYPKPRVVTITQATEVGTVYRPDELKAISATCKELGLNLHMDGARFTNACAFLGCSPAELTWKAGVDVLCFGGTKNGMAVGEAILFFNRQLAEDFDYRCKQAGQLASKMRFLSAPWVGLLEDGAWLRHGNHANHCAQLLASLVSDLPGVELMFPVEANGVFLQMPEHAIEALRGKGWRFYTFIGSGGARFMCSWDTEEARVRELAADIRTIIGG
notes: E. coli BL21(DE3); HisTrap, Resource Q, Superdex 200

What follows are molecules tested on T1, NCC(=O)O (assay: purified protein). Details: glycine varied 2.5-50 mM, co-substrate 4-methylsulfonylbenzaldehyde, PLP, HEPES-NaOH pH 8.0, 30 °C.
T1 construct: E. coli BL21(DE3); HisTrap, Resource Q, Superdex 200
Type: biochemical, Pseudomonas putida

Molecule	Km	kcat	kcat/Km
L-PpTA (Pseudomonas putida KT2440; H133N)	12.8 mM	12.7 s⁻¹	990 M⁻¹ s⁻¹
L-PpTA (Pseudomonas putida KT2440; H133W)	12.9 mM	12.3 s⁻¹	950 M⁻¹ s⁻¹
L-PpTA (Pseudomonas putida KT2440; E147D)	15.1 mM	6.5 s⁻¹	430 M⁻¹ s⁻¹
L-PpTA (Pseudomonas putida KT2440; H133Y)	22.6 mM	12.5 s⁻¹	550 M⁻¹ s⁻¹
L-PpTA (Pseudomonas putida KT2440; Y312E)	25.3 mM	15.3 s⁻¹	600 M⁻¹ s⁻¹
L-PpTA (Pseudomonas putida KT2440; A9L)	14.6 mM	7.7 s⁻¹	530 M⁻¹ s⁻¹
L-PpTA (Pseudomonas putida KT2440; Y13K)	19.6 mM	10.4 s⁻¹	530 M⁻¹ s⁻¹
L-PpTA (Pseudomonas putida KT2440; A9V)	13.8 mM	7.2 s⁻¹	520 M⁻¹ s⁻¹
L-PpTA (Pseudomonas putida KT2440; Y312R)	20.1 mM	12.2 s⁻¹	610 M⁻¹ s⁻¹
L-PpTA (Pseudomonas putida KT2440; Y13C)	24.7 mM	13.9 s⁻¹	560 M⁻¹ s⁻¹

Each molecule was assayed on NCC(=O)O (assay: purified protein). Details: glycine varied 2.5-50 mM, co-substrate 4-methylsulfonylbenzaldehyde, PLP, HEPES-NaOH pH 8.0, 30 °C.
Type: biochemical, Pseudomonas putida

Molecule	Km	kcat	kcat/Km
B1	17.4 mM	7.1 s⁻¹	410 M⁻¹ s⁻¹
